{"source": "patent US20180238866A1", "about": "(University of California, published 2018)", "binders": {"B1": {"name": "secreted phospholipase A2 type IIA (sPLA2-IIA), wild type, recombinant (enzyme)", "chain": "NLVNFHRMIKLTTGKEAALSYGFYGCHCGVGGRGSPKDATDRCCVTHDCCYKRLEKRGCGTKFLSYKFSNSGSRITCAKQDSCRSQLCECDKAAATCFARNKTTYNKKYQYYSNKHCRGSTPRC", "modifications": "FITC-labeled in the flow cytometry binding assays of FIG. 7a-b ; FITC-labelled in the flow cytometry binding assays (FIG. 7a-b).", "notes": "PDB 1DCY was used for it in the docking simulation; also called WT sPLA2-IIA; sPLA-IIA"}}, "key": {"[1]": {"molecular_target": "T1, integrin αvβ3 on the cell surface of U937 cells and of K562 cells that express human integrin αvβ3 (human, UniProt P06756 31-1048; P05106 27-788)", "T1 construct": "whole, on cells; Two cell types carry the same human integrin; also called αvβ3 on U937; αvβ3-K562", "T1 sequence (P06756 31-1048, chain 1 of 2)": "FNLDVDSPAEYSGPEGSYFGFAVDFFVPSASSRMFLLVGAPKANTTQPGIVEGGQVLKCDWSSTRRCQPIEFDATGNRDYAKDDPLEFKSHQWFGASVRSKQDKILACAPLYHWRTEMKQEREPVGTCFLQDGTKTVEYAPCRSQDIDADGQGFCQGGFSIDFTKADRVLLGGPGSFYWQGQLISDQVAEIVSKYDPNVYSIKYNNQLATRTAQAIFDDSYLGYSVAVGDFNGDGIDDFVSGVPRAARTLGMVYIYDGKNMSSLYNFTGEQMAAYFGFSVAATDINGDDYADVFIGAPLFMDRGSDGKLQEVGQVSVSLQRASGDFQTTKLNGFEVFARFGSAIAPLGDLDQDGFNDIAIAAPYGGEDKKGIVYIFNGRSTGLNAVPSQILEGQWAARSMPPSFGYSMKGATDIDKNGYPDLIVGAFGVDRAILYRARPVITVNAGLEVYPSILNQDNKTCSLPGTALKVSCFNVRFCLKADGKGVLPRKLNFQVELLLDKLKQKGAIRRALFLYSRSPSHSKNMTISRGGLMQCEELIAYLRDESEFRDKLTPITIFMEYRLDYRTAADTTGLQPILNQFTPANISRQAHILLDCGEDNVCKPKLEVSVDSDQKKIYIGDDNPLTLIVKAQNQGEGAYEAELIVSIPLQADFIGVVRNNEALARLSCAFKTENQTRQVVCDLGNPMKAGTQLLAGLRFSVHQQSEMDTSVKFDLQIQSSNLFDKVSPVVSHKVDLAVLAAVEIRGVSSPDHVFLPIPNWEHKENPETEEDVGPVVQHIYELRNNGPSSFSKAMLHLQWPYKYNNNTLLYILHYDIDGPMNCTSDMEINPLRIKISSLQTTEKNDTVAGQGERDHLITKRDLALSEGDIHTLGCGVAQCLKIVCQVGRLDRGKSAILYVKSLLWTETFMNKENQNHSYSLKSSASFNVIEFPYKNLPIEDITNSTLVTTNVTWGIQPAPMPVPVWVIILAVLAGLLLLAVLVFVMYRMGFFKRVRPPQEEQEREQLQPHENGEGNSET", "T1 sequence (P05106 27-788, chain 2 of 2)": "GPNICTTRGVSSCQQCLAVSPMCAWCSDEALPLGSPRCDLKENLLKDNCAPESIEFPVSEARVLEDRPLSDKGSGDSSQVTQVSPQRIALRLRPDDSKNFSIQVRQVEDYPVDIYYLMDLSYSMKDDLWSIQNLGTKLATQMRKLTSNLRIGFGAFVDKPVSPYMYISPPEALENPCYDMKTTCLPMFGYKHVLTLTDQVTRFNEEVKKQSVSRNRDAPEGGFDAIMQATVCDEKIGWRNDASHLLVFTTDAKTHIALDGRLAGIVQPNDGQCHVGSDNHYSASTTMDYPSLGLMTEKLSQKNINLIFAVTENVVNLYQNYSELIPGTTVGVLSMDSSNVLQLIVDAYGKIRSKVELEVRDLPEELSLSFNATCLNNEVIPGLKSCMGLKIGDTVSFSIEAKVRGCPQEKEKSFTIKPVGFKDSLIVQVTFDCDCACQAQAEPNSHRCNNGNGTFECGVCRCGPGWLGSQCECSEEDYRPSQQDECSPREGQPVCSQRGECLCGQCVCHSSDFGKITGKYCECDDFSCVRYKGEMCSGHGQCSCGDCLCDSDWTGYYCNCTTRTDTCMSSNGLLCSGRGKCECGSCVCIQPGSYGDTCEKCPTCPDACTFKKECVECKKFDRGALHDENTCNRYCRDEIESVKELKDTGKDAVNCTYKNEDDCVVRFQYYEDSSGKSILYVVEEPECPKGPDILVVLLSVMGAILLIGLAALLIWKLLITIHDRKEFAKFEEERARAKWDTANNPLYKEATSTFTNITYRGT", "experiment": "flow cytometry, FITC-γC399tr on U937 and αvβ3-K562 cells with sPLA2-IIA (20 µg/ml) and Cmpd21", "description": "(§1) The cells were washed with PBS/0.02% BSA and analyzed by FACSCalibur (Becton Dickinson, Mountain View, Calif.)."}, "[2]": {"molecular_target": "T2, recombinant soluble integrin αvβ3 (UniProt P06756 31-992; P05106 27-718, limits assumed)", "T2 construct": "also called soluble αvβ3", "experiment": "ELISA-type: soluble αvβ3 (5 µg/ml) on immobilized γC399tr, 1 mM Ca2+, with sPLA2-IIA; bound αvβ3 detected with anti-β3 mAb AV-10", "protocol": "Remaining protein binding sites were blocked by incubating with PBS/0.1% BSA for 30 min at room temperature."}, "[3]": {"molecular_target": "T1, integrin αvβ3 on the cell surface of …", "experiment": "flow cytometry, FITC-labeled ADAM15 on U937 and αvβ3-K562 cells, with sPLA2-IIA (20 µg/ml)", "description": "Data are shown as means (MFI)±SEM of three independent experiments.\nas §1"}, "[4]": {"molecular_target": "T3, integrin α5β1 on K562 cells and U937 cells (UniProt P08648 42-1049; P05556 21-798, limits assumed)", "T3 construct": "whole, on cells", "T3 sequence (P08648 42-1049 limits assumed, chain 1 of 2)": "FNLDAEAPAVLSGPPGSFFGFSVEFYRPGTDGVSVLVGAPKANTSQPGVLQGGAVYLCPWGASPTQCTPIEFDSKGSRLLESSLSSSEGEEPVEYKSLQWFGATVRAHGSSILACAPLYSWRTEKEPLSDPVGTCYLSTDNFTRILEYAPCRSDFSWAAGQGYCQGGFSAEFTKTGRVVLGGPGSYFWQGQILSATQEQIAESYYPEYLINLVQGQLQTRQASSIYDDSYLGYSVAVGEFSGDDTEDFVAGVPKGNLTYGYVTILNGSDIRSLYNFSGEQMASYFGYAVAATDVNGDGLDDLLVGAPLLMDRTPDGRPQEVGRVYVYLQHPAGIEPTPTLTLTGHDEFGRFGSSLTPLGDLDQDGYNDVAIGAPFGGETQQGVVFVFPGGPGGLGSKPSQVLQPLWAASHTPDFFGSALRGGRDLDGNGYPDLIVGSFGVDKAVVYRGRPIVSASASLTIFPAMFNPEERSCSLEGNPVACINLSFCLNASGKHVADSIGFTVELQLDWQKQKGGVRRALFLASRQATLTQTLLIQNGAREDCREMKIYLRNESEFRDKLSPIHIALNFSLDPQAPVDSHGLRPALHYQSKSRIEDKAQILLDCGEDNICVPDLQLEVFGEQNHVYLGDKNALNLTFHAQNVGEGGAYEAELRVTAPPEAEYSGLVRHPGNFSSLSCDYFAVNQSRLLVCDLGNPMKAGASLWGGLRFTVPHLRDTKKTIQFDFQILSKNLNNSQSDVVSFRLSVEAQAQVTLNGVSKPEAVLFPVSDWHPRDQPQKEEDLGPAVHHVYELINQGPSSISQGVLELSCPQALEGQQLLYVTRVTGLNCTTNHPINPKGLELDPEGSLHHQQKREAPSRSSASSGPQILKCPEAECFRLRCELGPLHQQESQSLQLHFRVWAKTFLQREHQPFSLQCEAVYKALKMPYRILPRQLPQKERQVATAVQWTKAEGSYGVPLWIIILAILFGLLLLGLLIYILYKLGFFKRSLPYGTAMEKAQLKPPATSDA", "T3 sequence (P05556 21-798 limits assumed, chain 2 of 2)": "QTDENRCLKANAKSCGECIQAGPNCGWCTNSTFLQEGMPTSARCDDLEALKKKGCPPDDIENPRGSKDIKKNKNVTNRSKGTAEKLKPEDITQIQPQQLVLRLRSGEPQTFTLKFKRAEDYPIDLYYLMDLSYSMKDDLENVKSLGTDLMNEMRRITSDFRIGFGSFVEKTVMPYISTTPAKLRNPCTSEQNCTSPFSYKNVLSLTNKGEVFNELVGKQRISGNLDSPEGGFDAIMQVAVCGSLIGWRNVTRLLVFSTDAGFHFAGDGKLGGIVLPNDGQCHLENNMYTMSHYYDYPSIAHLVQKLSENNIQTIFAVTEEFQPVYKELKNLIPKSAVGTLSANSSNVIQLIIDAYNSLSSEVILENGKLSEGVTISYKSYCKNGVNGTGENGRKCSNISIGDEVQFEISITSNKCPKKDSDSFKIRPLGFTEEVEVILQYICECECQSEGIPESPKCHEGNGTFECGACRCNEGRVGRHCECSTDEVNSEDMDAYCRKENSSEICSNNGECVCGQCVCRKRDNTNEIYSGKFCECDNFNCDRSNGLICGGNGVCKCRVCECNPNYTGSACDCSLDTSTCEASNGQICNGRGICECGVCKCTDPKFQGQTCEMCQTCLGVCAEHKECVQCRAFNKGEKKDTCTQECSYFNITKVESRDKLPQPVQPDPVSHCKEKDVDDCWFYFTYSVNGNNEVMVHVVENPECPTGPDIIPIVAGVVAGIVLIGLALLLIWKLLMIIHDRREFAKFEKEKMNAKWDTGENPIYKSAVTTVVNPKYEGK", "experiment": "flow cytometry, FITC-FN8-11 on U937 and K562 cells, with sPLA2-IIA", "protocol": "Bound FITC was measured using flow cytometry.\nas §1"}, "[5]": {"molecular_target": "B1", "experiment": "ELISA-type: GST-tagged peptide on immobilized sPLA2-IIA, anti-GST-HRP"}, "[6]": {"molecular_target": "T4, control GST (UniProt P08515 1-218 = GST)", "T4 construct": "Control protein", "T4 sequence (P08515 whole entry)": "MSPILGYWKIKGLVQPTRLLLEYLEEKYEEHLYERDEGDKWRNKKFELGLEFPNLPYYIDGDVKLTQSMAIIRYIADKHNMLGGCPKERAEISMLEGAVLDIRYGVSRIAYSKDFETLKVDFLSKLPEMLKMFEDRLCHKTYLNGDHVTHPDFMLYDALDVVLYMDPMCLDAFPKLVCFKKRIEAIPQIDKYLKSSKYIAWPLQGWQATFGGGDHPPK", "experiment": "ELISA-type: GST-tagged protein on immobilized sPLA2-IIA, anti-GST-HRP", "protocol": "Remaining protein binding sites were blocked by incubating with PBS/0.1% BSA for 30 min at room temperature. After washing with PBS, S2 peptides were added to the wells and incubated in PBS for 2 h at room temperature."}, "[7]": {"molecular_target": "T3, integrin α5β1 on K562 cells and U937 …", "experiment": "flow cytometry, FITC-sPLA2-IIA (10 µg/ml) on K562 cells", "protocol": "Bound FITC was measured using flow cytometry. Data are shown as means±SEM of MFI of three independent experiments. c. […] Data are shown as means±SEM of % adhesion of three independent experiments. d-f. […] Data are shown as means±SEM of MFI of three independent experiments. […] Data are shown as means±SEM of MFI of three independent experiments, j-l. […] Data are shown as means±SEM of MFI of three independent experiments."}}, "note": "Where no end group is shown, it is not given here.", "data": [{"binder": "Fibrinogen γ-chain C-terminal domain that lacks residues 400-411 (γC399tr) (ligand, UniProt P02679 177-425, looked up, FITC-labeled in the flow cytometry assays, domain: Fibrinogen γ-chain C-terminal domain that lacks residues 400-411) KDCQDIANKGAKQSGLYFIKPLKANQQFLVYCEIDGSGNGWTVFQKRLDGSVDFKKNWIQYKEGFGHLSPTGTTEFWLGNEKIHLISTQSAIPYALRVELEDWNGRTSTADYAMFKVGPEADKYRLTYAYFAGGDAGDAFDGFDFGDDPSDKFFTSHNGMQFSTWDNDNDKFEGNCAEQDGSGWWMNKCHAGHLNGVYYQGGTYSKASTPNGYDNGIIWATWKTRWYSMKKTTMKIIPFNRLTIGEGQQ", "values": [{"measurement": "binding result", "setting": "[1]", "result": "binds"}, {"measurement": "binding result", "setting": "[2]", "result": "binds"}]}, {"binder": "disintegrin domain of human ADAM15, GST fusion protein (ligand, FITC-labeled in the flow cytometry assays, domain: disintegrin domain; also called ADAM15 disintegrin domain; not shown: glutathione S-transferase (GST) fusion partner) not shown", "values": [{"measurement": "binding result", "setting": "[3]", "result": "binds"}]}, {"binder": "rat fibronectin type III domains 8-11 (FN8-11), GST fusion protein (ligand, FITC-labeled in the flow cytometry assays, domain: Fibronectin type III domains 8-11; also called RGD-containing fibronectin fragment; not shown: glutathione S-transferase (GST) fusion partner) not shown", "values": [{"measurement": "binding result", "setting": "[4]", "result": "binds"}]}, {"binder": "HHHHHHVHDSHYSGQGAMSDNTNSPQT (also: GST fusion protein, GST not in chain, Control peptide; also called scrambled S2-β3 peptide; scrambled β3 peptide; not shown: glutathione S-transferase (GST) from vector pGEX-2T)", "note": "[scrambled site 2 peptide of β3 (S2-β3scr), GST fusion]", "values": [{"measurement": "binding result", "setting": "[5]", "result": "no binding"}]}, {"binder": "B1", "values": [{"measurement": "binding result", "setting": "[6]", "result": "no binding"}, {"measurement": "binding result", "setting": "[7]", "result": "binds"}]}]}
